In patent US10100120B2, “Antibody which specifically binds to human CRTH2” (KYOWA HAKKO KIRIN CO., LTD, priority 2015, dated 2018):
Where a chain is given by its changes, count along the chain named.

Key:
human basophils = assay: Basophil depletion (cytotoxic) activity in human peripheral blood cells, flow cytometry; format: cell-based; conditions: 37° C., 20 hours
Protocol: Human peripheral blood collected by adding a heparin sodium injection liquid was centrifuged at 4° C. and 1500 rpm for 30 minutes, and the plasma was recovered.
After the plasma was recovered, PBS (NACALAI TESQUE, Inc.) was added to the pellet containing the red blood up to the original volume of blood and the pellet was suspended. Next, to 1 mL of the suspension, 10 mL of hemolyzing solution [solution obtained by diluting 10×RBC Lysis buffer (eBioscience) 10 times with sterile water] was added to be mixed by inversion. The resultant was allowed to stand at room temperature for 10 minutes and centrifuged at room temperature and 1500 rpm for 5 minutes and washed twice with PBS after the supernatant was removed therefrom.
Thereafter, the cell pellet was suspended with the recovered plasma and the cells were seeded in a 48-well plate at 300 μL/well, each of chLym2, humanized Lym2 antibodies LV0HV0, LV0HV1, and LV0HV2a, or an isotype control antibody [IgG1 antibody prepared according to the method described in Example 5 using a vector encoding an anti-2,4-dinitrophenol (DNP) IgG1 antibody described in Clin Cancer Res 2005, 11(8), 3126 to 3135 (hereinafter, referred to as anti-DNP IgG1 antibody)] were added at each final concentrations of 1000, 100, 33, 11, 3.7, 1.2, 0.4, and 0.01 ng/mL to cause a reaction in a 5% CO2 incubator at 37° C. for 20 hours.
After the reaction, the cell fluid in each well was recovered, 10 mL of SM was added thereto, 200 μL per sample of CountBright Absolute Counting Beads, for flow cytometry (Molecular Probes) was added as control beads, and the fluid was centrifuged at 4° C. and 2000 rpm for 10 minutes, and then the supernatant was removed. The resultant was washed twice with SM, 10000 μg/mL of IgG from human serum (Sigma-Aldrich Co. LLC) diluted with SM was added at 300 μL/sample and suspended to cause a reaction at 4° C. for 30 minutes. […]
The cells were washed twice with SM, suspended by SM containing 1% of 7-AAD Staining Solution (BD Biosciences), allowed to stand at 4° C. for 10 minutes, and the fluorescent intensity was analyzed by flow cytometry (BD Biosciences, FACS CantoII).
Human eosinophils were detected as 7-AAD negative siglec8-PE positive fractions in granulocyte fractions of FSC-SSC deployment. Human basophils were detected as 7-AAD negative fractions, CD123-PC-Cy7 positive fractions, FcεRI-APC positive fractions in lymphocyte fractions of FSC-SSC deployment. The cell depletion activity was evaluated by analyzing the count number of each cell per a certain number of CountBright. […]

human eosinophils = assay: Antagonist activity using shape change of human eosinophils as index (Example 19); format: cell-based; conditions: antibody 10 μg/mL or small molecule 10 μM, DKPGD2 0.1-1000 nM; FIG. 16
Protocol: Eosinophils were separated from human peripheral blood in the same manner as in Example 11. The isolated human eosinophils were suspended with Dulbecco's phosphate buffered saline (hereinafter, referred to as D-PBS (−)) (NACALAI TESQUE, Inc.) and performed a reaction in a 5% CO2 incubator at 37° C. for 1 hour and 30 minutes. Thereafter, the cells were seeded in a 96-well plate at 2×10^5 cells/well using 10% FBS-containing RPMI1640. Next, an isotype control antibody [CELL LAB Rat IgG2b Isotype Control (Beckman Coulter Inc.)] at a final concentration of 10 μg/mL or Lym2 antibody; or small molecular CRTH2 antagonist 00000459 (Cayman Chemical) at a final concentration of 10 μM as a positive control, was added thereto to cause a reaction in a 5% CO2 incubator at 37° C. for 30 minutes.
Next, DKPGD2 (Cayman Chemical) at each of final concentrations of 0.1, 1, 10, 100, and 1000 nM was added thereto to cause a reaction in a 5% CO2 incubator at 37° C. for 60 minutes. After the reaction, the cells were washed twice with ice-cold PBS, Fixation Buffer (BD Biosciences) was added at 200 μL/well, and the resultant was suspended well and allowed to stand at 4° C. for 30 minutes. After that, the cells were washed twice with SM, and shape change of eosinophils was analyzed by flow cytometry (BD Biosciences, FACS CantoII).
The shape change of eosinophils was analyzed based on an increase in Forward Scatter Light (FSC) plot which is an index of the cell size, the cell surface area, or the cell diameter in the analysis using flow cytometry and the percentage (%) of eosinophils detected in the gate of high FSC was calculated based on the FSC of DKPGD2-untreated eosinophils.

B1: LV0HV1: humanized Lym2 antibody, VL LV0 (SEQ ID NO: 33), VH HV1 (SEQ ID NO: 51) (antibody, V domains shown)
VH: EVQLVESGGGVVQPGRSLRLSCAASGFTFSNYYMAWVRQAPGKGLEWVATISYDGSSTYYRDSVKGRFTISRDNAKNSLYLQMNSLRAEDTATYYCARHRGYYYSGAGYFDYWGQGTMVTVSS
VL: DIVMTQTPLSLPVTPGESASISCRSSQSLEYSDGYTYLEWYLQKPGQSPQVLIYGVSNRFSGVPDRFSGSGSGTDFTLKISRVEAEDVGVYYCFQATHDPLTFGQGTKLEIK
cytotoxic activity against basophils (human basophils; Example 8, 0.01-1000 ng/mL, FIG. 3): comparable to the chimeric Lym2 antibody chLym2 | removal of basophils (human basophils; Example 14, 0.1-1000 ng/mL, FIG. 11): removed

B2: Lym2 antibody: rat anti-human CRTH2 monoclonal antibody from hybridoma Lym2, rat IgG2b; VH SEQ ID NO: 17, VL SEQ ID NO: 19 (antibody, listed as Rattus norvegicus, V domains shown)
VH: B1 VH with V11L, L18M, R19K, G42K, N77S, S78T, N84D, A88S, T117V
VL: DVVLTQTPVSLSVTLGDQASISCRSSQSLEYSDGYTYLEWYLQKPGQSPQVLIYGVSNRFSGVPDRFIGSGSGTDFTLKISRVEPEDLGVYYCFQATHDPLTFGSGTKLEIK
inhibition of DKPGD2-dependent shape change of eosinophils (antagonist activity) (human eosinophils): didn't inhibit
